Columns and labels:
Test in all cases: summary map of the heterotypic association assay: GST deletion protein incubated with the complementary keratin, then stained with COU-1
[1] = target: T1, K8(130-483)/intact K18 heterotypic complex
T1 construct: one member of the group m25; not shown: GST fusion partner (modified pGEX-2T) on the keratin proteins
T1 K8 fragment: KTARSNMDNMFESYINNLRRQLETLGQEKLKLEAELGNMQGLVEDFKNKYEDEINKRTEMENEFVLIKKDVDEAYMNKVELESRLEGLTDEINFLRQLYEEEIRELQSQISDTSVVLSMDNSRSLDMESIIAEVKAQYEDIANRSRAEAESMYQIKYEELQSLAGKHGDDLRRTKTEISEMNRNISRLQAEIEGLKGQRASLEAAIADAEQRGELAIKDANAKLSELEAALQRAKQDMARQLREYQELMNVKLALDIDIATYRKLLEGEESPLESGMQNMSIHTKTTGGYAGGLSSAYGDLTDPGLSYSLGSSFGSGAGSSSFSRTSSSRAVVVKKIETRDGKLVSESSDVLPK
T1 K18 intact: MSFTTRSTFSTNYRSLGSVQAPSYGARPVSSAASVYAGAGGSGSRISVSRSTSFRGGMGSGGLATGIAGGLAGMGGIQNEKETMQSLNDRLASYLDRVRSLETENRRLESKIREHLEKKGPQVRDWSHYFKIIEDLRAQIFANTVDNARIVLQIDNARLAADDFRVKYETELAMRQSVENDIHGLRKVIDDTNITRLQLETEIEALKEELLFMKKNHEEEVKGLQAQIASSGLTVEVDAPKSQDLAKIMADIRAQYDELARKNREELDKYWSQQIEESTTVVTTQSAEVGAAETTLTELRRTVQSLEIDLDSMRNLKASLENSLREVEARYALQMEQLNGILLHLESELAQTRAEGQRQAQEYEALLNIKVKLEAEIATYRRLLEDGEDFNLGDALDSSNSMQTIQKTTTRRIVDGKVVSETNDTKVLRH

[2] = target: T2, K8(240-483)/intact K18 heterotypic complex
T2 construct: one member of the group m25; not shown: N-terminal GST carrier (modified pGEX-2T) and its linker on the keratin constructs
T2 chain 1: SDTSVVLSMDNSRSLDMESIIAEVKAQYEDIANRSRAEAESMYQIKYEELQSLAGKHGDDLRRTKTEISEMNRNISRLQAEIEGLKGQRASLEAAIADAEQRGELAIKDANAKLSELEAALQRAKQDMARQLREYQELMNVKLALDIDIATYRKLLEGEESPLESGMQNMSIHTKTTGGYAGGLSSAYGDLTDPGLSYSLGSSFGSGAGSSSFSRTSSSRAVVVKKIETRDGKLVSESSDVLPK
T2 chain 2: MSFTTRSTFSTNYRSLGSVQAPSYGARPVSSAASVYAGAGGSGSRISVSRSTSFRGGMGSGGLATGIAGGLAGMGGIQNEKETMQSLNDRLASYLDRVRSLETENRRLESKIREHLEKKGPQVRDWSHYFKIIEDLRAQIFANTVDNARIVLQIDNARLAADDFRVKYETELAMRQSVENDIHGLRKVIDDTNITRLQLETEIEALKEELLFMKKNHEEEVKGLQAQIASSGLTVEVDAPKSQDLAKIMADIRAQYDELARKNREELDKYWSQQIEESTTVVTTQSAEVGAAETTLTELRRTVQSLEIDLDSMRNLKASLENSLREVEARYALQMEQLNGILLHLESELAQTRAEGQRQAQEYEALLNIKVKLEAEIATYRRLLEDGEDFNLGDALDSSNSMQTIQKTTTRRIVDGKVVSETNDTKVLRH

[3] = target: T3, K8(300-483)/intact K18 heterotypic complex
T3 construct: one member of the group m25; not shown: N-terminal GST carrier (modified pGEX-2T) and its linker on the keratin constructs
T3 chain 1: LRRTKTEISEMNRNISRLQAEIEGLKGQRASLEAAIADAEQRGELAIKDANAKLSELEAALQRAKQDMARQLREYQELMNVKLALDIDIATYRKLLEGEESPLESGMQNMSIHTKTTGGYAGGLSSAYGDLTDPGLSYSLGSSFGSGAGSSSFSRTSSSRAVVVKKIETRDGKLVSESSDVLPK
T3 chain 2: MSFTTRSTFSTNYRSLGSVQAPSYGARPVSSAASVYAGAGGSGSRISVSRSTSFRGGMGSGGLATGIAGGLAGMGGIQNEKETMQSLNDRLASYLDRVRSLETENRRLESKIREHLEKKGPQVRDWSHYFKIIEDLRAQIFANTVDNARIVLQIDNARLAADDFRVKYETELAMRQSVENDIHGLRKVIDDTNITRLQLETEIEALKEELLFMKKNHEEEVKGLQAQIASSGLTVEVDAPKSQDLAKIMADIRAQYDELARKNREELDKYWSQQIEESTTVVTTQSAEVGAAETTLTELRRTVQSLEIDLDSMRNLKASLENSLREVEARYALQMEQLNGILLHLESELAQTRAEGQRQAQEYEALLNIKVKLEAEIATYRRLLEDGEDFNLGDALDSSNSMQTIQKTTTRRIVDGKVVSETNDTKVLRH

[4] = target: T4, intact K8/K18(1-72) heterotypic complex (human, UniProt P05787 2-483; P05783 2-73)
T4 construct: Heterotypic complex of two GST fusion proteins; also called K18(1-72)/intact K8; not shown: glutathione S-transferase (GST) fusion partner, modified pGEX-2T vector
T4 chain 1: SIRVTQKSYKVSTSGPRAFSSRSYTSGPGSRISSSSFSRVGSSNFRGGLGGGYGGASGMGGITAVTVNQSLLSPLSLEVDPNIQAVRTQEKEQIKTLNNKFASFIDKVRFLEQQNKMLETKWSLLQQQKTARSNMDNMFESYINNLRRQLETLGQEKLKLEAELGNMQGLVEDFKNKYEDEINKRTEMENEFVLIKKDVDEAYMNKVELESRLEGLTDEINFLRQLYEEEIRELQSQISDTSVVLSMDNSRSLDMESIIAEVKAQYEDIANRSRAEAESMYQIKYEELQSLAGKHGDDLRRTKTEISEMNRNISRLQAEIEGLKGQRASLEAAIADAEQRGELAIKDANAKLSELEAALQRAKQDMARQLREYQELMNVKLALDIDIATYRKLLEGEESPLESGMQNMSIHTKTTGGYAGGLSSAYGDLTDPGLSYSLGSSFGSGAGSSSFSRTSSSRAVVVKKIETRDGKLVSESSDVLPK
T4 chain 2: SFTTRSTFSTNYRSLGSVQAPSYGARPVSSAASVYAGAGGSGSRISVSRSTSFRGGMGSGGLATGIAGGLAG

[5] = target: T5, K8(1-85)/intact K18 heterotypic complex (human, UniProt P05787 2-86; P05783 2-430)
T5 construct: Heterotypic complex of two GST fusion proteins; also called intact K8(1-85)/intact K18; not shown: glutathione S-transferase (GST) fusion partner, modified pGEX-2T vector
T5 chain 1: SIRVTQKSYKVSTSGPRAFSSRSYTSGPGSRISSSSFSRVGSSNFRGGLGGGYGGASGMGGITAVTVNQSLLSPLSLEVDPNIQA
T5 chain 2: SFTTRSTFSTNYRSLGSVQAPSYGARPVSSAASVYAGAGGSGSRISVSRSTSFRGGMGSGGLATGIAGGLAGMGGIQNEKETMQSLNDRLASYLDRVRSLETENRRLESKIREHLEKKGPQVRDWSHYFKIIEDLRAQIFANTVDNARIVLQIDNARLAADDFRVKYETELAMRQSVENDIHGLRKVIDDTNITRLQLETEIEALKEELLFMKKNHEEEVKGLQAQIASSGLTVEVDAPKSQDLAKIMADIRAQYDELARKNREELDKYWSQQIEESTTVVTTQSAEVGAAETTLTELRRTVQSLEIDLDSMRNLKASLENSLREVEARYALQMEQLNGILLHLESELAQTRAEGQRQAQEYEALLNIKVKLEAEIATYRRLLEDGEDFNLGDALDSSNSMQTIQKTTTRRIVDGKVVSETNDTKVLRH

B1: human monoclonal IgM antibody COU-1 (antibody, V domains shown)
VH: GAEVKKPGASVKVSCKASDYTFSSYYMHWVRQAPGQGLEWMGIINPSGGSTSYAQKFQGRVTMTRDTSTNTVYMELSSLRSEDTAVYYCARDQVVVAATLSNYGMDVWGQGTTVTVSS
VL: ELTQSPGTLSLSPGERATLSCRASQSVSSSYLAWYQQKPGQAPRLLIYDASNRATGIPARFSGSGSGTDFTLTISSLEPEDFAVYYCQQGTNWGIAFGQGTRLDIKR
notes: Human IgM with kappa light chain, secreted by hybridoma B9165 (ECACC 87040201), purified from culture supernatant; also called HMab COU-1; HuMab COU-1
**Q.** Does B1 bind [1]?
**A.** Result: no binding (tested: 5 µg/ml COU-1 (P-0285))

**Q.** Does B1 bind [2]?
**A.** Result: no binding (tested: 5 µg/ml COU-1 (P-0285))

**Q.** Does B1 bind [3]?
**A.** Result: no binding (tested: 5 µg/ml COU-1 (P-0285))

**Q.** Does B1 bind [4]?
**A.** Result: no binding (tested: 5 µg/ml COU-1 (P-0285))

**Q.** Does B1 bind [5]?
**A.** Result: no binding (tested: 5 µg/ml COU-1 (P-0285))
